A short description of series [1]: Steady-state kinetics of ferrochelatase and P255 variants. It counts as biochemical, murine. Conditions: for Km: protoporphyrin, read-out: Km^PPIX. The text has this: One possible explanation for these findings is that the mechanism of interaction between the enzyme and the protoporphyrin substrate differs from that for inhibitor binding. It is conceivable that the active site of ferrochelatase is optimized for interaction with the protoporphyrin substrate and retains a certain degree of plasticity towards this end. Possibly, this facilitates the induction of porphyrin deformation in the protein matrix, and in so doing, ensures the catalytic reaction to proceed. In contrast, the constraints of the active site towards NMPP are presumably more stringent than towards the protoporphyrin substrate and any alterations of the active site affect the selectivity towards NMPP. Another possible explanation, and not necessarily mutually exclusive from the former, is that mutations introduced in the active site (e.g., at the P255 position) cause an alteration of the regiospecificity of ferrochelatase, such that the mutated active site can accommodate either a regioisomer or a combination of regioisomers of NMPP different from those of the wild-type active site. It is worth noting that 1) the commercially available NMPP used in this study consists of a racemic mixture of the eight potential isomers and 2) only one NMPP isomer was identified in the crystal structure of the B. subtillis ferrochelatase.
Protein Purification. Wild-type, murine ferrochelatase and variants were over-expressed, under the control of the E. coli alkaline phosphatase promoter phoA, in BL21(DE3) cells. The purification of the recombinant proteins bearing a N-terminal penta-histidine tag, assessment of the purity by sodium dodecyl sulfate-polyacrylamide gel electrophoresis and determination of protein concentration and enzymatic activity were as described previously (Shi and Ferreira 2004).

For another series, the system named is E. coli Δvis cells. As to the kind of experiment: Genetic selection in E. coli: growth of Δvis transformants on NMPP-containing plates. It counts as cell-based, Escherichia coli. Conditions: medium containing more than 20 μM NMPP. As for the experimental part: To isolate Escherichia coli Δvis transformants harboring loop variants more tolerant to NMPP than wild-type ferrochelatase, 33 variants isolated from a library of 214 functional, ferrochelatase clones were plated on LB-ampicilin medium containing 0.2 μM, 2 μM or 20 μM NMPP. E. coli Δvis cells can only grow when hemin is added to the medium or when the cells are transformed with an active ferrochelatase expression plasmid. Transformants harboring a subset of the functional loop variants including K250N, V251L, P255R, P255G, K250M/V251L/W256Y and Q248P/S249G/250P/G252W were grown onto LB-ampicilin plates with increasing concentrations of NMPP. […] Based on this observation, the P255 variants were selected for further characterization.
Genetic Selection in E. coli. E. coli Δvis cells harboring plasmids encoding active, ferrochelatase variants isolated from a random sequence library of the loop motif were grown 16-18 h at 37° C. in LB agar medium containing 50 μg/mL of ampicillin and varying concentrations of NMPP. For the preparation of the NMPP-containing LB-ampicilin agar plates, a 2 mM stock solution of NMPP was made by dissolving NMPP in 20 mM NH4OH containing 2% Tween-20. The solution was filter-sterilized and kept at 4° C. The stock solution was diluted 100-, 1000- and 10000-fold to prepare LB-ampicilin plates containing 20 μM, 2 μM and 0.2 μM NMPP. Δvis cells transformed with wild-type ferrochelatase and functional variants were grown in LB medium containing 50 μg/mL ampicilin and 0.4% (w/v) glucose at 37° C., overnight, with shaking at 220 RPM. Each of the overnight cultures was diluted 20-fold into fresh medium and grown at 37° C. for ˜1 hr until OD600 reached ˜0.4-0.5. Subsequently, these cultures were diluted with LB medium by 10^6 and 100 μl aliquots of the diluted stock were spread on LB-ampicilin agar plates and LB-ampicilin agar plates containing NMPP at 0.2 μM, 2 μM and 20 μM, respectively. The plates were incubated at 37° C. for 16 hr, and the colonies on each plate were counted. […]

Consider 3 molecules from US8586530B2, “Modulation of inhibition of ferrochelatase by N-methyl protoporphyrin” (University of South Florida, priority 2006, dated 2013).

B1: P255R: murine ferrochelatase variant in which P255 was replaced with arginine (protein, UniProt P22315 54-422, looked up, variant P255R)
Ferrochelatase, mitochondrial: TTKPQAQPERRKPKTGILMLNMGGPETLGEVQDFLQRLFLDRDLMTLPIQNKLAPFIAKRRTPKIQEQYRRIGGGSPIKMWTSKQGEGMVKLLDELSPATAPHKYYIGFRYVHPLTEEAIEEMERDGLERAIAFTQYPQYSCSTTGSSLNAIYRYYNEVGQKPTMKWSTIDRWPTHPLLIQCFADHILKELNHFPEEKRSEVVILFSAHSLPMSVVNRGDPYPQEVGATVHKVMEKLGYPNPYRLVWQSKVGPVRWLGPQTDEAIKGLCERGRKNILLVPIAFTSDHIETLYELDIEYSQVLAQKCGAENIRRAESLNGNPLFSKALADLVHSHIQSNKLCSTQLSLNCPLCVNPVCRKTKSFFTSQQL
The term kcat denotes the number of substrate molecules converted per active site and unit of time at saturation. A word on the Km: it is the substrate concentration at which the rate is half of its maximum. Regarding B1, in series [1], the kcat was found to be 0.13 ± 0.013 s⁻¹ and the Km is 2.65 ± 0.44 µM. For the same molecule, the “colony formation of Δvis cells expressing the enzyme” value in the series on E. coli Δvis cells was “could form colonies”.

B2: P255G: murine ferrochelatase variant in which P255 was replaced with glycine (protein, UniProt P22315 54-422, looked up, variant P255G)
Ferrochelatase, mitochondrial: TTKPQAQPERRKPKTGILMLNMGGPETLGEVQDFLQRLFLDRDLMTLPIQNKLAPFIAKRRTPKIQEQYRRIGGGSPIKMWTSKQGEGMVKLLDELSPATAPHKYYIGFRYVHPLTEEAIEEMERDGLERAIAFTQYPQYSCSTTGSSLNAIYRYYNEVGQKPTMKWSTIDRWPTHPLLIQCFADHILKELNHFPEEKRSEVVILFSAHSLPMSVVNRGDPYPQEVGATVHKVMEKLGYPNPYRLVWQSKVGPVGWLGPQTDEAIKGLCERGRKNILLVPIAFTSDHIETLYELDIEYSQVLAQKCGAENIRRAESLNGNPLFSKALADLVHSHIQSNKLCSTQLSLNCPLCVNPVCRKTKSFFTSQQL
Regarding B2, in series [1], the kcat amounted to 0.0983 ± 0.0233 s⁻¹ and the Km is 2.51 ± 0.8 µM. Further, in the series with E. coli Δvis cells, the “colony formation of Δvis cells expressing the enzyme” value is “could form colonies”.

B3: wild-type ferrochelatase: recombinant wild-type, murine ferrochelatase with N-terminal penta-histidine tag (protein, UniProt P22315 54-422, looked up)
Ferrochelatase, mitochondrial: TTKPQAQPERRKPKTGILMLNMGGPETLGEVQDFLQRLFLDRDLMTLPIQNKLAPFIAKRRTPKIQEQYRRIGGGSPIKMWTSKQGEGMVKLLDELSPATAPHKYYIGFRYVHPLTEEAIEEMERDGLERAIAFTQYPQYSCSTTGSSLNAIYRYYNEVGQKPTMKWSTIDRWPTHPLLIQCFADHILKELNHFPEEKRSEVVILFSAHSLPMSVVNRGDPYPQEVGATVHKVMEKLGYPNPYRLVWQSKVGPVPWLGPQTDEAIKGLCERGRKNILLVPIAFTSDHIETLYELDIEYSQVLAQKCGAENIRRAESLNGNPLFSKALADLVHSHIQSNKLCSTQLSLNCPLCVNPVCRKTKSFFTSQQL
For the molecule B3, in series [1], the kcat is 0.0683 ± 0.005 s⁻¹ and the Km was found to be 1.4 ± 0.2 µM. Further, the “colony formation of Δvis cells expressing the enzyme” value in the series on E. coli Δvis cells was “could not”.
